The target of one experiment is gamma-synuclein monomer (human, UniProt O76070). Kind of experiment: ELISA. (In an ELISA, binding on a coated surface is turned into a signal by an enzyme label.)
A further experiment deals with alpha-synuclein monomer (human, UniProt P37840). Kind of experiment: SPR. For orientation: SPR reads the build-up and loss of mass on a sensor chip optically.
The target in a further experiment is beta-synuclein monomer (human, UniProt Q16143). Kind of experiment: ELISA.
Experiment [1] has as its target alpha-synuclein sonicated fibrils (human, UniProt P37840). Kind of experiment: SPR.
Experiment [2] addresses alpha-synuclein physiologic tetramer (human, UniProt P37840). Kind of experiment: SPR.
The next experiment has as its target alpha-synuclein oligomer (human, UniProt P37840). Kind of experiment: SPR.

Chain of gamma-synuclein monomer (O76070 whole entry): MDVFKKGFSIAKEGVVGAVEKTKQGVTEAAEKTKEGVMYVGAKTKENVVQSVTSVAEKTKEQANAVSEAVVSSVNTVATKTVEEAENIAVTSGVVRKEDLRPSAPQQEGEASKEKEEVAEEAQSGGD
Chain of beta-synuclein monomer (Q16143 whole entry): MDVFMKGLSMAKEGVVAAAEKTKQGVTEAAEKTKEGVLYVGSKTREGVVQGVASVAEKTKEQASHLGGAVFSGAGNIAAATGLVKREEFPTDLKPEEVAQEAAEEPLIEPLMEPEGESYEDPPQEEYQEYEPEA

B1: 2E9 (antibody, V domains shown)
VH: EVKLLESGGGLVQPGGSLKLSCAASGFDFSRYWMNWVRQAPGKGLEWIGEINPHSSTINYAPSLKDKFIISRDNAKNTLYLQMSKVRSEDTALYYCGRGDYVDYWGLGTTLTVSS
VL: DIVMSQSPSSLAVSVGEKVTMSCKSSQSLLYSRNQKNYLAWYQQKPGQSPKLLIYWASTRESGVPDRFTGSGSGTDFTLTISSVKADDLAVYYCQQYYSYPRTFGGGTKLEIK
A word on the Kd: it is the concentration at which binding is half-saturated. A higher Kd goes with weaker binding. On to B1, for which the binding result (with gamma-synuclein monomer; with alpha-synuclein monomer; in the experiment with beta-synuclein monomer; in experiment [2]) was “no binding” each time. Moreover, the results for the dissociation constant (Kd) (in experiment [1]; in the experiment with alpha-synuclein oligomer) were 9 nM and 431 nM, respectively.

B2: 12G1 (antibody, V domains shown)
VH: QIQLVQSGPELRKPGETVRISCKASGYTFTTAGMQWVQKMPGKGLKWIGWINTHSGVPKYAEDFKGRFAFSLETSASTAYLQISNLKNEDTATYFCARTSWAPYWGQGTLVTVSA
VL: not shown
B2: the binding result (in the experiment with alpha-synuclein monomer; in experiment [2]) was “no binding” throughout. Besides, the Kd was determined as 20 nM in experiment [1] and 1610 nM with alpha-synuclein oligomer.

B3: 12B12 (antibody, V domains shown)
VH: EVQLQQSGAELVKPGASVKLSCTASGFNIKDTYIHWVKQRPEQGLEWIGRIDPANGNTNYDPKFQDKATITADTSSNTAYLQFSSLTSEDTAVYYCSNWDYFDYWGQGTTLTVSS
VL: not shown
As to B3, the binding result (in the experiment with alpha-synuclein monomer; in experiment [2]) was “no binding” throughout. Also, the Kd came to 8 nM in experiment [1] and 985 nM in the experiment with alpha-synuclein oligomer.

Values taken from patent publication US20250346655 (published 2025).
